# Laboratory results from patent US20110256132A1 (published 2011).
# Positions count from the first letter of the chain named. Numbers in names are those of the source. Read-outs that look alike come from different tables or passages of the source.
# B1: H0L0 (antibody, human IgG1, kappa)
# heavy: not shown
# light: DIQMTQSPSSLSASVGDRVTITCKASQDINSYLSWFQQKPGKAPKSLIYRANRLVDGVPSKFSGSGSGTDFTLTISSLQPEDFATYYCLQCDEFPLTFGQGTKLEIKRTVAAPSVFIFPPSDEQLKSGTASVVCLLNNFYPREAKVQWKVDNALQSGNSQESVTEQDSKDSTYSLSSTLTLSKADYEKHKVYACEVTHQGLSSPVTKSFNRGEC
# notes: Humanised, human IgG1 wild type/kappa
# B2: H2L0 (antibody, human IgG1, kappa)
# heavy: not shown
# light: B1 light
# notes: as for B1
# B3: H2L1 (antibody, human IgG1, kappa)
# heavy: not shown
# light: B1 light with G16R
# notes: as for B1
# B4: H2L2 C91S_G55S F100G_Y-Fc disabled (antibody, human IgG1, kappa)
# heavy: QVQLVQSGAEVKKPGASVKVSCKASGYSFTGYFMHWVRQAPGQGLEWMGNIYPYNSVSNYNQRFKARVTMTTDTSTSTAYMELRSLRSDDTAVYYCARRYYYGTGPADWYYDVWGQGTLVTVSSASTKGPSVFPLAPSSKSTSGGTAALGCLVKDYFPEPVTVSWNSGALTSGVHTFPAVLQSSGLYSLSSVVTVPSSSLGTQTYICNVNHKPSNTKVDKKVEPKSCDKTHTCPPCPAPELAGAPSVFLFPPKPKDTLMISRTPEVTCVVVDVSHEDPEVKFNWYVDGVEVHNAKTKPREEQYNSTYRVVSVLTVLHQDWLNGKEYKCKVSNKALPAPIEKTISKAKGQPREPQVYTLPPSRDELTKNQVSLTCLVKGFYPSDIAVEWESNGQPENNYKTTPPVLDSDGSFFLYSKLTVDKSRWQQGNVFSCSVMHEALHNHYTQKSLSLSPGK
# light: B1 light with F71Y, C91S
# B5: H2L2 N54D & C91S (H2L2-N54D-C91S) (antibody, human IgG1, kappa, V domains shown)
# VH: QVQLVQSGAEVKKPGASVKVSCKASGYSFTGYFMHWVRQAPGQGLEWMGNIYPYDGVSNYNQRFKARVTMTTDTSTSTAYMELRSLRSDDTAVYYCARRYYYGTGPADWYFDVWGQGTLVTVSS
# VL: DIQMTQSPSSLSASVGDRVTITCKASQDINSYLSWFQQKPGKAPKSLIYRANRLVDGVPSKFSGSGSGTDYTLTISSLQPEDFATYYCLQSDEFPLTFGQGTKLEIKR
# B6: H2L2 N54D (H2L2-N54D) (antibody, human IgG1, kappa, V domains shown)
# VH: B5 VH
# VL: B5 VL with S91C
# B7: H2L2-C91S_F100G_N (antibody, human IgG1, kappa, V domains shown)
# VH: B5 VH with D55N, F111N
# VL: B5 VL
# B8: H2L2-C91S_W100E_F (antibody, human IgG1, kappa, V domains shown)
# VH: B5 VH with D55N, W109F
# VL: B5 VL
# B9: H2L3 (antibody, human IgG1, kappa)
# heavy: not shown
# light: B1 light with Q100A
# notes: as for B1
# B10: 10B3 chimera N54D (HCLC-N54D) (antibody, human IgG1, kappa, V domains shown)
# VH: EVQLQQSGPELVKPGASVKISCKASGYSFTGYFMHWVKQSHGNILDWIGNIYPYDGVSNYNQRFKAKATLTVDKSSSTAYMELRSLTSEDSAVYYCARRYYYGTGPADWYFDVWGTGTLVTVSS
# VL: DIKMTQSPSSMYASLRERVTITCKASQDINSYLSWFQQKPGKSPKTLIYRANRLVDGVPSRFSGSGSGQDYSLTISSLEYEDMGIYYCLQCDEFPLTFGAGTKLELKR
# B11: 10B3 chimera N54D & C91S (HCLC-N54D-C91S) (antibody, human IgG1, kappa, V domains shown)
# VH: B10 VH
# VL: B10 VL with C91S
# B12: H2L2-C91S_F100G_Y Fc Disabled (antibody, human IgG1, kappa)
# heavy: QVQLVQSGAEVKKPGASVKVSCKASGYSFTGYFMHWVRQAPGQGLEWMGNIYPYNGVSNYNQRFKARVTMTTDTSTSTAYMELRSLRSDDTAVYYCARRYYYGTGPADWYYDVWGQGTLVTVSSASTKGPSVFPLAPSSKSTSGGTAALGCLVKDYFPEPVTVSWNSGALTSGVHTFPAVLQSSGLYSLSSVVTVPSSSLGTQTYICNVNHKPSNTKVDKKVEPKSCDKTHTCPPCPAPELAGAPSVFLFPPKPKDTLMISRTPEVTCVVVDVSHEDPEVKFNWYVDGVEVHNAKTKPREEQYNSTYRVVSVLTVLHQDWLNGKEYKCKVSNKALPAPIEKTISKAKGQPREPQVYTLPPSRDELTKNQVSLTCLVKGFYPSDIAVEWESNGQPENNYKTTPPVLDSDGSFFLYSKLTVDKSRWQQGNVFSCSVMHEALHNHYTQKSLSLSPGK
# light: B1 light with F71Y, C91S
# B13: H2L2 C91S_G55S F100G_Y (antibody)
# chain 1: not shown
# chain 2: B1 light with F71Y, C91S
# Columns and labels:
# [1] = target: T1, mature myostatin (recombinant, dimeric) (mouse polyprotein used for in-house …, UniProt O08689 268-376); assay: BIAcore, high density myostatin surface, antibody analyte, 1:1 model (poor fits)
# T1 construct: also called GDF-8; recombinant myostatin
# T1 sequence: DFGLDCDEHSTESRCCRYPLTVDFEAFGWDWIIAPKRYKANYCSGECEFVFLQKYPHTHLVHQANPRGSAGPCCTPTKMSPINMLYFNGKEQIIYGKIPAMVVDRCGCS
# Experimental: (§1) Purified H0L0, H1L2 and H2L2 bound recombinant myostatin by BIAcore™ Recombinant myostatin was immobilised at three different densities (low, medium and high, to give R-max values of approximately 35, 120 and 350 RU's respectively) onto a BIAcore™ chip. Antibodies were passed over at 256, 64, 16, 4 and 1 nM. 0 nM antibody was used for double referencing and data was fitted to the 1:1 model.
# [2] = target: T1, mature myostatin (recombinant, dimeric); assay: BIAcore, low density myostatin surface, antibody analyte, 1:1 model
# Experimental: as §1
# [3] = target: T1, mature myostatin (recombinant, dimeric); assay: BIAcore, low density myostatin surface, methods as in 4.3
# [4] = target: T1, mature myostatin (recombinant, dimeric); assay: BIAcore, medium density myostatin surface, antibody analyte, 1:1 model (poor fits)
# Experimental: as §1
# [5] = target: T1, mature myostatin (recombinant, dimeric); assay: cell-based or functional assay
# [6] = target: T1, mature myostatin (recombinant, dimeric); assay: cell-based or functional assay; remark: listed apart in the source
# [7] = target: T1, mature myostatin (recombinant, dimeric); assay: myostatin binding ELISA with purified antibody, 10 ng/well recombinant myostatin coated, anti-human kappa HRP, A490 (Examples 4.1, 4.2); the text says the CHOK1 material was hard to quantify
# Experimental: (§2) The myostatin binding ELISA was carried out approximately according to this protocol. A 96-well ELISA plate was coated at 4° C. overnight with 10 ng/well recombinant myostatin. This plate was then washed 3-times in wash buffer (PBS, 0.1% Tween-20). The wells were blocked for 1 hour at room temperature with block solution (PBS, 0.1% Tween-20+1% bovine serum albumin [BSA]), before washing 3-times in wash buffer. Antibodies were then titrated out to a suitable concentration range (approximately 100 to 0.001 μg/ml), added to the plate and incubated for 1 hour at room temperature. The plate was then washed 3-times in wash buffer. An anti-mouse IgG HRP-conjugated antibody (P0260 by Dako, this reagent was used according to the manufacturer's instructions) was used to detect binding of mouse antibodies, such as 10B3. An anti-human kappa light chain HRP-conjugated antibody (A7164 by Sigma Aldridge, this reagent was used according to the manufacturer's instructions) was used to detect binding of humanized or chimeric antibodies, such as 10B3 chimera or H0L0. The plate was then washed 3-times in wash buffer and developed with an OPD substrate (from Sigma, used according to the manufacturer's instructions) and read at 490 nm on a plate reader.
# [8] = target: T1, mature myostatin (recombinant, dimeric); assay: myostatin binding ELISA with purified antibody, 10 ng/well recombinant myostatin coated, anti-human kappa HRP, A490 (Examples 4.1, 4.2)
# Experimental: as §2
# [9] = target: T1, mature myostatin (recombinant, dimeric); assay: myostatin binding ELISA, 10 ng/well recombinant myostatin coated, CHOK1 supernatants, anti-human kappa HRP, OPD, A490 (Examples 4.1, 4.2)
# Experimental: as §2
# [10] = target: T1, mature myostatin (recombinant, dimeric); assay: ActRIIb receptor binding assay (Example 2.5), mean IC50
# Experimental: Recombinant soluble ActRIIb (R&D Systems 339-RBB) was coated in wells of an ELISA plate at 1 μg/ml in carbonate buffer overnight at 4° C. Plates were blocked (see Block solution above at 2.3) and washed following standard ELISA protocols. In parallel, 2 nM biotinylated myostatin (in-house, as described in 1.1, biotinylated material) was pre-incubated with an antibody dilution series consisting of 10B3, 10B3C, and a negative control (IgG1 isotype control) for 2 hours at 37° C. The biotinylated myostatin:antibody reactions were then added to the ActRIIb coated plate for 1 hour at 37° C. Standard wash procedures were followed prior to addition of 1:1000 diluted streptavidin-HRP conjugate (Dako P0397) and a further 37° C. incubation for 1 hour. Plates were again washed and assayed at absorbance 490 nm following OPD substrate (Sigma) and acid stop solution treatment Inhibition curves and IC50 values for the inhibition of myostatin activity are shown in FIG. 5 and Table 8 respectively.
# H2L2 C91S_G55S F100G_Y, the developability enhanced molecule with the highest apparent potency in the A204 assay was Fc-disabled (by making the following substitutions, using EU numbering system: Leu 235 Ala; and Gly 237 Ala) as exemplified in SEQ ID NO: 99.
# [11] = target: T1, mature myostatin (recombinant, dimeric); assay: myostatin binding ELISA, 10 ng/well recombinant myostatin coated, CHOK1 supernatants, anti-human kappa HRP, A490 (Examples 5.1, 4.2)
# [12] = target: T1, mature myostatin (recombinant, dimeric); assay: myostatin capture ELISA: plate coated with polyclonal anti-myostatin AF788, myostatin 1 µg/ml captured, purified antibody titrated, anti-human kappa HRP, A490 (Example 6.7)
# Experimental: A 96-well ELISA plate was coated at 4° C. overnight with 2.5 μg/ml polyclonal Antibody to Myostatin (R&D Systems AF788). This plate was then washed 3-times in wash buffer (PBS, 0.1% Tween-20) and blocked for 1 hour at room temperature with block solution (PBS, 0.1% Tween-20+1% bovine serum albumin [BSA]). Then, myostatin was added at 1 μg/ml in block buffer during 1 hour followed by 3-times in wash buffer. Antibodies were then titrated out to a suitable concentration range (approximately 10 to 0.01 μg/ml), added to the plate and incubated for 1 hour at room temperature. The plate was then washed 3-times in wash buffer. An anti-human kappa light chain HRP-conjugated antibody (Sigma A7164, used according to the manufacturer's instructions) was used to detect binding of humanized or chimeric antibodies, such as 10B3 chimera (HcLc) or H0L0. The plate was then washed 3-times in wash buffer and developed with an OPD substrate (according to the manufacturer's instructions) and read at 490 nm on a plate reader.
# The experiment is illustrated in FIG. 21 where H2L2-C91S, H0L0, HcLc (10B3 chimera) and a negative control monoclonal antibody were used as control antibodies. All eleven CDRH3 variant antibodies bound to recombinant myostatin in this ELISA. […]
# [13] = target: T1, mature myostatin (recombinant, dimeric); assay: myostatin binding ELISA, CHOK1 supernatants
# Experimental: as §2, with “An anti-human kappa light chain HRP-conjugated antibody (A7164 by Sigma Aldridge, this reagent was used according to the manufacturer's instructions) was used to detect binding of humanized or chimeric antibodies, such as 10B3 chimera or H0L0.” left out
# The plasmids for each antibody were transfected into CHOK1 cells in duplicate and in two separate experiments. Antibodies produced in the CHOK1 cell supernatant were analysed for activity in the myostatin binding ELISA. […]
# [14] = target: T1, mature myostatin (recombinant, dimeric); assay: cell-based or functional assay; remark: listed apart in the source
# [15] = target: T1, mature myostatin (recombinant, dimeric); assay: cell-based or functional assay; remark: listed apart in the source
binder,measurement,setting,value
B1,Kd,[1],2.31 nM
same,koff,[1],0.000338 s⁻¹
same,kon,[1],146000 M⁻¹ s⁻¹
same,Kd,[2],8.26 nM
same,koff,[2],0.00662 s⁻¹
same,kon,[2],801000 M⁻¹ s⁻¹
same,Kd,[3],22.7 nM
same,Kd,[4],3.61 nM
same,koff,[4],0.00093 s⁻¹
same,kon,[4],258000 M⁻¹ s⁻¹
same,"Mean IC50, A204 in vitro activity assay",[5],10.2 nM
same,"Mean IC50, A204 in vitro activity assay",[6],10.1 nM
same,EC50 (read off the curve),[7],~0.3 µg/mL
same,EC50 (read off the curve),[8],~0.1 µg/mL
B2,binding result,[9],binds
B3,binding result,[9],binds
B4,IC50,[10],0.518 nM
B5,binding result,[11],no binding
B6,binding result,[11],no binding (tested: about 33 nM)
B7,binding result,[12],binds
B8,binding result,[12],binds
B9,binding result,[9],binds
B10,binding result,[13],no binding
B11,binding result,[13],no binding
B12,"Mean IC50, A204 in vitro activity assay",[14],1.24 nM
B13,"Mean IC50, A204 in vitro activity assay",[15],4.42 nM
same,IC50,[10],0.786 nM
